Measurements reported in the nanobody polyreactivity screen of Harvey et al. (2022).

experiment: yeast display, Sf9 membrane polyspecificity reagent, FACS + sequencing; frameworks hold sequencing errors
Method in brief: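 Polyreactivity labels are assigned by the sorting gate from which each nanobody was recovered. The gates were low and high (top ~1%), set on anti-HA fluorescence for expression and streptavidin fluorescence for reagent binding. Before sorting, galactose-induced (36–48 hours) yeast display cells were stained for 1 hour at 4 °C with 10% biotinylated, detergent-solubilized Sf9 membrane reagent.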

Row | Sequence | polyreactivity (PSR sort gate)
1 | QVQLVESGGGLVQAGGSLRLSCAASGPTFYYYAMGWYRQAPGKERELVAAITWSGGSTYYADSVKGRFTISRDNAKNTVYLQMNSLKPEDTAVYYCAADVTYSRYEYWGQGTQVTVSS | low polyreactivity
2 | QVQHEESGGGLVQAGGRLRLSCAASGRIFKQYALGGYRQAPGKERELVAAISVRGGITYYADSVKGRFTISRDNAMNTVYLQMNSLKPEDTAVYYCAKRSFRTHTYDYWGHGTQVTVSS | low polyreactivity
3 | QVQLVESGGGLVQAGGSLRLSCAASGFTITRYARGWYRQAPGKERELVAVITYSGDTYYADSVKGRFTISRDNAKNTVYLQMNSLKPEDTAVYYCAVERAYYSDTGRYGYDYWGQGTQVTVSS | high polyreactivity
4 | QVQLVESGGGLVQAGGSLRLSCAASGRTFAFYAMGWYRQAPGKERELVASISSSGDRTYYADSVKGRFTISRVNAKNTVYLQMNSLKPEDTAVYYCAARWRYTYYYWGQGTQVTVSS | high polyreactivity
5 | QVQLVESGGGLVQAGGSLRLSCAASGSIFRRNGMGWYRQAPGKERELVAAITYRGGNTNYADSVKGRFTISRDNAKNTVYFQMNRLKPEDTAVYYCAADTYGWWYAFEYWGQGTQVKVSS | low polyreactivity
6 | QVQLVESGGGLVQAGGSLRLSCAASGRIFLRNDMGWYRQAPGKERELVAGISSDGSTYYADSVKGRFTISRDNAKNTVYLQMNSLKPEDTAVDYCARYGTDHRLGYGYWGQGTQVTVSS | low polyreactivity
7 | QLQLEESGGGLVQAGGSLRLSCAASGFIFYSNAMGWYRKAPGKERELVASIPGDGGTTYYADSVKGRFTISRDNAKNTVYLQMNSLKPEDTAFYYCAKDYIYRGYYTDFRYEDYEYWGQGTQVTVSS | low polyreactivity
8 | QVQLVESGGGLVQAGGSLRLSCAASGRILPFNAMGWYRQAPGKERELVATITRRGGSTFYADSVKGRFTMSRDNAKNTVYLQMNSLKPEDTAVYYCAKTYWYVGSSRTYNYWGQGTQVTVSS | high polyreactivity
9 | QVQLVESGGGLVQAGGSLRLSCAASGRIFPYYTMGWYRQAPGKERELVAAISRRGSSTYYADSVKGRFTISRDNAQNTVYLQMNSLKPEDTAVYNCAADRGGYTRTGEYDYWGQGTQVTVSS | high polyreactivity
10 | QVQLVESGGGLVQAGGSLRLSCAASGGIFSRYAMGWYRQAPGKEREFVAAISFSGASTYYADSVKGRFTISRDNAKNTVYLQMNSLKPEDTAVYYCAAYWDAEGRRYTRLDYWGQGTQVTVSS | low polyreactivity
11 | QVQLVESGGGLVQAGGSLRLSFAASGSIFRYYVMGWYRQAPGKERELVAAISSGGRTYYADSVKGRFTISRDNAKNTVYLQMNSLKPEDTAVYYCNAQGLFYWEMDYWGQGTQVTVSS | high polyreactivity
12 | QVQLVESGAGLVQAGGSLRLSCAPSGRTFDYYAMGWYRQAPGKERELVADITKDGGSTYYADSVKGRFTISRDNAKNSVYLQMISLKPEDTAVYYCAADGPPQYYDPIHYDYWGQGTQVTVSS | low polyreactivity
13 | QDQLVESGGGLVQAGGSLRLSCAASGSTFRHNAMGWYRQAPGKERELVATIRTSGGTTYYADSVKGRFTISRDNAKNTVYLHMNSLKPEDTAVYYCAAVSYLFLYQGYPIAYPMYYWGQGTQVTLSS | low polyreactivity
14 | QVQLVESGGGLVQAGGSLRLSCAASGFIYRLNAMGWYRQAPGKERELVAAISTYADSVKGRFTFSRDNAKTTVYLQMNSLKPEDTAVYYCAKDYTDSYAYRTGFDYWGQGTQVTVSS | low polyreactivity
15 | QVQLVESGGCLVQAGGSLRLSCAASGRTLDFNVLGWYRPAPGQERELVAAITWSGGSTYYADSVKGRFTISRDNAQNTVYLQMNSLKQEDTAGYYCAAKALYAYRLYDYSGQGTQVTVSS | high polyreactivity
16 | KVQLVESGGGLVQAGGSLRLSCAASGSIFPSYVMGWYRQAPGKERELVAAITKSTGTTYYADSVKGRFTISRDNAKNTVYLQMNSLKPEDTAVYYCNAPYWFSPGYGGFEFGYDYWGQGTQVTVSS | low polyreactivity
17 | QVQLVESGGGLVQAGGSLRLSCAASGRIFGTNAMGWYRQAPGKERELVADITSGGSTNYADSVKGRFTISRDNAKNTVYLQMNSLTPEDTAVYYCAADVIGDLRWYRDEYWGQGTQVTVSS | low polyreactivity
18 | QVQLVESVGGLVQAGGSLRISCAASGFIFKSYSMGWYRQAPGKERELVAAISWIGGRTYYADSVKGRFTISRDNAKYTVYLQMNSLKPEDTAVYYCAKVVKYQSGGGLEYWGQGTQVTVSS | high polyreactivity
19 | QVQLVESCGGLVQAGGSLRLSCAPSGRTIVYKAMGWYRQAPGKERELVAAISWSGGSPYYADSVKGRFTISRDNAKNTVNLQMNSLKPDDSAVYYCATSSYYYTIWMYYWGQGTQVTVSS | high polyreactivity
20 | QVQLVESGGGLVQAGGSLRLSCAASGGTFGTNTMGWYRQAPGKERELVAAISKRGGRTYYADSVKGRFTISRDNAKNTVYLQMNSLKPEDTAVYYCAADTGGNPKYDYWGQGTQVTVSS | high polyreactivity
21 | QVQLVESGGGLVQAGGSLRLSCAASGRIFSYNAMGWYRQAPGKERELVAGITSGGRTYYADSVKGRFTISRDNAKNTVYLQMNSLKPEDTAVHYCAASYVPARTRYYYWGQGTQVTVSS | high polyreactivity
22 | QVQLVESGGGLVQAGGSLRLSCAASGSIFYYNTMAWYRQAPGKERELVAAIRQRGTSTYYADSVKGRFTISRDNAKNTVYLLMISLKPEDTAVYYCAAVTRGQSAYSYDYWGQGTKVTVSS | high polyreactivity

Row | Sequence | polyreactivity (PSR sort gate)
23 | QVQLVESGGGLVQAGGSLRLSCAASGSIFWYNAMGWYRQAAGKERELVAAIRWRGGSTYYADSVKGRFTISRDNEKNTVYLQMNSLKPEDTAVYYFAAQVYVSQLYTSYYYWGQGTQVTVSS | high polyreactivity
24 | QVQLVDSGGGLVQAGGTLRLSCAASGFTFIYYAMGWYRQAPGKERELVAAISASGGSTYYADSVKGRFTISRDNAKNTVYLQMNSLKPEDTAVYYCNKYWRKPPAGGYYYWGQGTQVTVSS | high polyreactivity
25 | QVQLVESGGGLVQAGGSLRLSCAASGSSFGVNAMGWYRQAPGKERELVADISVRTDSTYYADSVKGRFTISRDNAKNTVYLQMNSLKPEDTAVYYCAAEVPYYYPGFYSYYDDSDYWGQGTQVTVSS | low polyreactivity
26 | QVQLVESGGGLVQAGGSLRLSCAASGRIFYVYAMGWYRQAPGKERELVAAISRGGSTNYADSVKGRFTISRDNAKNTVYLQMNSLKPEDTAVYYCAASSLPHYSYRHSYLYEYWGQGTQVTVSS | low polyreactivity
27 | QVQLVESGGGLVQAGGSLRLSCADSGSTFYYYAMGWYRQAPGKERELVAAISTSGGSTYYADSVKGRFTISRDNAKNTVYFQMNSLKPEDTAVYYCAARYRRGMGYWGQGTQVTVSS | high polyreactivity
28 | QVQLVESGGGLVQAGGSLRLSCAASGFIIYRYAMGWYRQAPGKEREVVATISSRGGSTYYADSVKGRFTISRDNAKNTVYLQMNSLKPEDTAVYYCNVRTRVKTTQSYDRNNYYWGQGTQVTVSS | high polyreactivity
29 | QVQLVESGGGLVQAGGSLRLSCAASGSIFPYYTMGWYRQAPGKERELVAAITTSDSSTYYADSVKGRFTISRDNAKNTVYLQMNSLKPEDTAVYYCAARYSLYPYYAYDDAYRLYRLRGRDYWGQGTQVTVSS | low polyreactivity
30 | QVQLVESGGGLVQAGGSLRLSCAASGNTFAPNAMGWYRQAPGKERELVAVISWSSGRTYYADSVKGRFTISRDNAKNTVYLQMNSLKPEDTAVYYCAARFGSGFNYWGQGTQVTVSS | high polyreactivity
31 | QVQLVESGGGLVQAGGSLRITCAASGSTYYHNVMGRYRPAPGKERELVARISSGGGSTSYADSVKGRFTISRDNAKNTVYLQMNSLKPEETAVYYCNKYYTKRGYFLPWYHYGSWGQGTQVTLSS | high polyreactivity
32 | QVQLVESGGGLVQAGGSLRLSCAASGRIFYYNAMGWFRQAPGQERELVAAITSGGSTNYADSVKGRFTISRDNAKNTVYLQMNSLTPEDTAVYYCNARRYGSPRSEVHYDYWGQGTQVTVSS | low polyreactivity
33 | QVQLVESGGALVQAGGSLRLSCAASGSTFEDYAMRSSRQAPGKARELVAAISHIGGSTYYADSVKGRFTISRDNAKNTVYLQMNSLKPEDTAVYYCAKGVYSDLGYWAQGTQVTVSS | low polyreactivity
34 | QVELVESGGGLVQAGGSLRISCDASGSTFRWYAMGWYRQGPGKERELVAAINRSGGSTYYADSVKGRFTISRDNAKNTVYLQMNSLKPEDTAVYYCEARWYSSSRWYKYNYWGQGTQVTVSS | high polyreactivity
35 | QVQLVESGGGLVQAGGSLRLSCAASGRTFYRYAMGWYRQAPGKERELVAAITSGDRTDYADSVKGRFTISRDNAKNTVYLQMNSLKPEDTAVYYCAADPYYVTDYDYWGEGTQVTVSS | low polyreactivity
36 | HVQLVESGGGLVQAGGSLRLSCAASGSIFFVYDMGWYRQAPGKERELVAAITWSGGRTTYADSVKGRFTISRDNAKNTVYLQMNSLKPVDTAVYYCAAGRVRLRILWGKRGWYDYWGQGTQVTVSS | low polyreactivity
37 | QVQLVESGGGLVQAGGSLRLSCAASGSTFDRNVMGWYRQAPGKERELVAAISFSGGSTYYADSVKGRFTISRDTAKNTVYLQMNSLKPEDTAVYYCAADDGYSYIYAAGDYWGQGTQVTVSS | low polyreactivity
38 | QVQLVESGGGLVQAGGSLRLSCAASGSTFYWYSMGWYRQAPGKERELVAAITSTGGSTYADSVKGRFTISRDNAKNTVYLQMNSLKPEDTAVYYCNVDTSSPSRRDYDYWGQGTQVTVSS | low polyreactivity
39 | QVQLGESGGGLVQAGGSLRLSCAASGIIFRRYAMGWYRQAPGKERELVAVISSGGSTNYADSVKGRFTISRDNAKNTVYLQMNSLKPEDTAVYYCAAPSQSRGYYYWGQGTQVTVSS | high polyreactivity
40 | QVQLVESGGGLVQAGCSLRLSCAASGITFANYAMGWYRPAPGKVRELVAAINWSGGITYADSVKGRFTISRDNAKNTVYLQMHSLKPEDTAVYYCNPYYPDYAKYDYWGQGTQVTVSS | low polyreactivity
41 | QVQLVESGGGLVQAGGSLRLSCAASGSTFAINTMGSYREAPGKERELVAAISWSGGSTYYADSVKGRFTISRDNAKNTVYLQMNSLKPEDTAVYYCAARVPGWYVPGYNVYYWGQGTQVTVSS | high polyreactivity
42 | QVQLVESGGGLFQAGGSLRLSCAASGIIFAVYDMGWYRQAPGKERELVAAISWSGGSTYYADSVKGRFTISRDNAKNTVYLQMNSLKPEDTAVYYCNRVRYSRLGDYWGQGSQVTVSS | high polyreactivity
43 | QVQLVESGGGLVEAGGSLRLSCAASGSILIYVMGWYRQAPGKERDLFASITFSGGSTYYADSVKGRFTISRDNAKNSVYLQMYRLKPEVTAVYYCAAVPLWDYKFFYYLLYDYWGQGTQVTVSS | low polyreactivity
